Reference: paper PMC8210318

Key:
RPA heterotrimer [1] = molecular target: T1, RPA heterotrimer (UniProt P27694+P15927+P35244); test: EMSA; conditions: 25 nM DNA, EMSA: 10 mM Tris pH 7.5, 50 ug/ml BSA, 5% glycerol, 25 mM DTT, 37 C 10 min, 5% TBE gel
RPA heterotrimer [2] = molecular target: T1, RPA heterotrimer; test: fluorescence anisotropy; conditions: EMSA: 10 mM Tris pH 7.5, 50 ug/ml BSA, 5% glycerol, 25 mM DTT, 37 C 10 min, 25 nM DNA, 5% TBE gel, anisotropy: same buffer, 30 C

T1 sequence (P27694 whole entry, chain 1 of 3): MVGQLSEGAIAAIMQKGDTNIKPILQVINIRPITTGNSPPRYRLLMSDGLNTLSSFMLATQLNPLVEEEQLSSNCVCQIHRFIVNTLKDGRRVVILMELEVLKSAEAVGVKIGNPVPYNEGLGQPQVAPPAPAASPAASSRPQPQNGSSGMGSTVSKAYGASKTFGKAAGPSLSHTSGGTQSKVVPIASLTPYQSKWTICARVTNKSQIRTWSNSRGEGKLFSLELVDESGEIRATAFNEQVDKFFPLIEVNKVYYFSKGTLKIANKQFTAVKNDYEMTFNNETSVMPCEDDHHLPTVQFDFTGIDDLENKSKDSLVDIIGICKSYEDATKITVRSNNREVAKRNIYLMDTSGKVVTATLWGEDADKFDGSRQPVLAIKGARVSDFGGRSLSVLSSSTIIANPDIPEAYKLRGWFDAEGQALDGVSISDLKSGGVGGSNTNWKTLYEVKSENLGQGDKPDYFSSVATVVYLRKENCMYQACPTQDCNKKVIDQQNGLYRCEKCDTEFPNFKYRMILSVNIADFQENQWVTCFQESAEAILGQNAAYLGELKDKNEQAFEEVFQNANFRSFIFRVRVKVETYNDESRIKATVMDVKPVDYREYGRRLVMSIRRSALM
T1 sequence (P15927 whole entry, chain 2 of 3): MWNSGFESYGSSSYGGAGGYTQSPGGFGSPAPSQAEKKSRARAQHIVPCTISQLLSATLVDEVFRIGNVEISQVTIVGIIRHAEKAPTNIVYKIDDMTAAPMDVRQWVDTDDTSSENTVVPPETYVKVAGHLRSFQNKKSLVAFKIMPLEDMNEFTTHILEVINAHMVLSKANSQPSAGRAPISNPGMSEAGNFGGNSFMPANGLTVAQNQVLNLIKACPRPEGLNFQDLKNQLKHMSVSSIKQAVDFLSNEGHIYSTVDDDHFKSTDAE
T1 sequence (P35244 whole entry, chain 3 of 3): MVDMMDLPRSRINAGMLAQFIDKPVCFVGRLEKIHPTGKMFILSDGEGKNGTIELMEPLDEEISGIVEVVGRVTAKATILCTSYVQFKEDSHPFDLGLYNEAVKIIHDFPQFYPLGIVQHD

Question: For “GTCGGATCCTCTAGACAGCATCCATGATCACTGGCACTGGTAGAATTCGGC / CAACGTCATAGACGATTACATTGCTACATGGATGCTGTCTAGAGGATCCGA [fork-2]”, which binding signal (RPA heterotrimer [1]; 12.5 nM RPA, anisotropy: same buffer, 30 C) is on record?
Answer: 100 % bound

Question: And the binding signal (% of bound DNA released) (RPA heterotrimer [1]; N-HelQ titrated (up to 500 nM), anisotropy: same buffer …)?
Answer: 40

Question: How did the Kd (RPA heterotrimer [2]; with 500 nM BSA as control) turn out when “GTCGGATCCTCTAGACAGCATCCATGATCACTGGCACTGGTAGAATTCGGC / CAACGTCATAGACGATTACATTGCTACATGGATGCTGTCTAGAGGATCCGA [fork-2 fluorescein]” was run?
Answer: 45.2 nM

Question: And the Kd (RPA heterotrimer [2]; with 500 nM N-HelQ, which displaces RPA)?
Answer: 237 nM
